Data taken from the DeepSol protein solubility set.

Assay: soluble on expression in E. coli; label from the status in PepcDB or PDB records

| Sequence | soluble on expression in E. coli |
| --- | --- |
| MEEQREALRKIIKTLAVKNEEIQSFIYSLKQMLLNVEANSAKVQEDLEAEFQSLFSLLEELKEGMLMKIKQDRASRTYELQNQLAACTRALESSEELLETANQTLQAMDSEDFPQAAKQIKDGVTMAPAFRLSLKAKVSDNMSHLMVDFAQERQMLQALKFLPVPSAPVIDLAESLVADNCVTLVWRMPDEDSKIDHYVLEYRRTNFEGPPRLKEDQPWMVIEGIRQTEYTLTGLKFDMKYMNFRVKACNKAVAGEFSEPVTLETPAFMFRLDASTSHQNLRVDDLSVEWDAMGGKVQDIKAREKDGKGRTASPINSPARGTPSPKRMPSGRGGRDRFTAESYTVLGDTLIDGGEHYWEVRYEPDSKAFGVGVAYRSLGRFEQLGKTAASWCLHVNNWLQVSFTAKHANKVKVLDAPVPDCLGVHCDFHQGLLSFYNARTKQVLHTFKTRFTQPLLPAFTVWCGSFQVTTGLQVPSAVRCLQKRGSATSSSNTSLT | soluble |
| MEESDVLISLIEILKIHQKVIDYDKFKDPEDYTPAIRSLATLELMFEYLIKESNTIFENAAVIVYTIVAKHPFFNGNKRTGYEAMNFIIEDGGYGFTSTDEEMIEFIIRVATTENEMSIEEIKEWIIRHTEKILLEHHHHHH | soluble |
| MEFDKGQTLGNFIDRIRLNGYNTECVFNQSICQDIKNHYKQQCCAMCGVRGNSENTQIEVDHKDGRKDDSRVSDLSTQAFDDFQALCKACNDKKRQICKKCKETGYRFDARKIPGNHYSFYEGEAEYDGCVGCYQYDPIQYRKTCNDRIYNEGYQKGYSDGYQIGYHQKTTL | not soluble |
| MEFSMNATVEQLAPVEQQATTDWVVAALYQFKEVADAADLQQRLLDLVKTINLCGTLIVASEGINGTVAGDRHAIDTIREFLLNEGFHAMEYKESHSAEKPFRKMKIKLKQEIVTLGVEVKPRDLVGHYLDPKEWNELISRDDVILVDTRNDYEYKAGTFKGAIDPKTETFREFPDYVKQNLEQHKDKKIAMFCTGGIRCEKSTSLLLQEGFNEVYHLKGGILKYLEETPAEESLWEGECFVFDGRTAVTHGVEEGQNVKCHACGWPLTPEEVALPSYEHGVSCVYCIEKTTEKQKEGFRMRQSQIAAAKRKRLLEHHHHHH | soluble |
| MEFTLTREKQMIKEMVRDFAEKEIAPKAVYYDKTAEFPYETFQKMGELGLLGIPFPEEYGGSGGDTVSYALAVEEIGRACGGTGLSYAATISLGASPIYYFGTEEQKQKYLVPMASGKTLGAFGLTEPNAGSDAGGTQTKAILDGDEYVISGEKCWITNAEYANTIIVTAVNGIEENGRKRISAFIVPTTSEGLTISSPYDKMGVRASNTCEIVLDGVRVPKENILGDVNKGFKQFLYTLDGGRISIAVLAVGIAQSAFERALQYAKERQQFGKAISNFQAIQFKLADMATEVELARNLVHKAAWLKDNDKPFGKEAAMAKLFASEAASRIANQAVQIHGGYGYMREYEVERHIRDAKLLEIGEGTSEIQRLVIARHLGCR | not soluble |
| MEFYGPITGEKFAFLLFRDNGEVIEFNHWSQVKEYKSELKISKSSIQIFLRNGCVYPPYTIYSNVLMLPIGTKLTIDIKNDIFKWENNFCFLDRHSKQDSKPSTSKLKTLIANSFAHLKKEVKPIYMMQSAGKDSTAMLLGLHEQGIQNVHCVTYEANFRDTESDAAKKIAESLGFEHTILFPNYEAEFDALLEYQENAVSITGDFSMLPYIAANKSVFKSDSLVIDGLGNDLYMGYVSNKLERSIMKCSLGNFSYLEPSKFTSNEVINYAISSIFMKPYERLFPGTRLSSSEIENFTDNKFIDDDAIYFSKQYNNLDKDDFRAAIRARFCDSTMFQMKAELTTNSFGNEVYFPFSNKELVDYYFNLPIEERYDKANSCNKTLLRSMLNEYVEVDDFFKVKSGFRYNMPEFITINKEKIKKEIIECDLLEQDYSNRFFAKHLDVQKVNYTSACKAYILLVFASWRNRNKLAVVDGHVADKFDWY | not soluble |
| MEGGGAKDGSAAAAQTRGSGDDGSHKPLPPCCLKAKAAAAESEAKCHATVVSGWFTEPRSHSGKTSKVQYFNNPMWPGEAHSLKVENILYQGKSPYQEILVFESSTYGNVLVLDGIVQLTEKDECAYQEMVTHLPLCSIPSPKSVLVVGGGDGGVLREIARHASVENIDICEIDQLVIDVCKDFFPQLSVGFKDPRVQLHVGDAVDFLRNAPEGKYDAIIVDSSDPIGPAQELVEKPFFQTIARALKPGGVLCNQAESMWLHTHLIQDMLSICRETFKGAVHYAWTSVPTYPSGVIGFLLCAKEGPAVNFLSPVNPIEKLEGAMEAGREIRFYNSEVHRAAFVLPTFVRRELESHNTCAEKDKSETKPVAKPKKMKIMPNSAIPTAS | not soluble |
| MEGLFNAIKDTVTAAINNDGAKLGTSIVSIVENGVGLLGKLFGF | soluble |
| MEGLTPEMQREAEALRREWETNPRWKGVRRDYRPEDVVRLRPSVMVEYTLAKRGAEKLWKLLHERPYVHTFGAYTGAMAVEMVRAGLEAIYLSGWQVAADANLAWQTYPDQSLYPYNSVPQIVKRINNALMRADQVERIEGRVTRDWYVPIVADAEAGFGGALNVFELTKAMIEAGAAGIHYEDQLASEKKCGHLGGKVLVPTGQHIRTLQAARLAADVMGVPTVIIARTDAEAATLITSDIDERDKPFILPDERTPEGFYRFKNGIEAGIARALAYAPYADVIWMETSKPDLEEARKFAEAVKKEFPDKLLAYNLSPSFNWKKFLDDETIAKFNRELGEMGYKFQFITLAGWHALNYYIWELAKGYKERGMPAFVELQQKEFAAQKEGFTAVKHQREVGAGYFDEVVLALTQGQASTLALKGSTEEAQFNEPVH | soluble |
| MEGVELKEEWQDEDFPIPLPEDDSIEADILAITGPEDQPGSLEVNGNKVRKKLMAPDISLTLDPSDGSVLSDDLDESGEIDLDGLDTPSENSNEFEWEDDLPKPKTTEVIRKGSITEYTAAEEKEDGRRWRMFRIGEQDHRVDMKAIEPYKKVISHGGYYGDGLNAIVVFAVCFMPESSQPNYRYLMDNLFKYVIGTLELLVAENYMIVYLNGATTRRKMPSLGWLRKCYQQIDRRLRKNLKSLIIVHPSWFIRTLLAVTRPFISSKFSQKIRYVFNLAELAELVPMEYVGIPECIKQVDQELNGKQDEPKNEQLEHHHHHH | soluble |
| MEIAKEIKDFLTTRRARITPDQVGLPTGGRRRVAGLRREVVAMLAGVSAEYYVQIERGGVSGVSDEVLYAIATALRLDDEETKHLFTLARAASTRPRRRIAPRARVEVPEPVQALVDAMITAPAVVQNGHLDIVAVNALGRALYADVFDRSDGVPNLARFIFLDRRAGETFPDWNHAADDAVAILRSEAARSPYSAAVTGLVGELATRSDEFRTRWATHDIKAHRRGTKRFHHPVVGDLTLRFEALEVASAAGLTLFGFTAEPGSPSEESLRLLSSWAASDRPEHQHS | not soluble |
| MEIFMNYKKSNGLNYILISDTALFQGCSPVETEKLLSGMQFFTKAYKKGVPVYHAGTPVSDIGIVLHGVVQIENNDLWGNKNIISLAQAGEVFAEAYACIPGEPMMVDVIALEDCEILFLNVPRLFQLASSGKGEYSVLIRNLTMISARKNLLLSRRILHTSSKKIRGRLLSYLSHQAELQGSRYIDIPLNRQQLADYLSLDRSALSKELAKMKQDGLLDYHKNSFVLKNV | not soluble |
| MEITWEKPKSSSHHRNPSFSSTLLDQIYRSIDDSSPPPPLESIKKKKHHHQQRNASLHEDREISPIYHRRSIAADFERSRRKTDFLRHSNSSSSDSSGFSSSESDSFHGRSKSSASPPSSSRQQPKPIRTSSVDHSSAVQKPKELGGFLRTKSKALKIYSDLKKVKQPISPGGRLATFLNSLFTNAATNPKKHKKTTTVAVVEEPHSSSTCSSASSFSRSCLSKTPSSSGKSKRSVRFCPVNVILDEDSSFTMPYAYNNERLYDNNEAKRVEEHRRVIQAAKDLLRTYHNKNKVTTTNINNVEEDDEDDAASCASSDLFELENLSAIGIERYREELPVYETTRLDNMNRVIATGLIV | soluble |
| MEKDNICYKTYVEILERELVPAMGCTEPIALAYCSAKARSVLGVLPDKVLVEVSGNIVKNVKSVIVPNSGGRRGIEAAAAVGILAGREDLELEVLSKVTDEDIAGLGAYMEKVEITVAPLDTPYLLDMAVTAKKDGSRARVRIAQEHTNIIEIEKDGKILFEKQAGEEEDCDAPDYSLLTIEKIYDFADTADLEDVKAVLDRQIAYNTAIAEEGLRGDYGANIGRVLMEEYGDRIENRAKAMAAAGSDARMNGCDLPVIINSGSGNQGMTASLPVIEYAKELKCSREKLYRALLLSNLVTLHQKTGIGRLSAYCGAVSAGAGAGAGIAYLEGGDLKVVAHTLVNALAITSGIVCDGAKASCAAKIAVAVDTGILGYKMYKKGQQFYGGDGLVAKGVENTIRNIGRLGKEGMKETDKEIIRIMTE | not soluble |
